Drawing on publication PMC9550759, this text covers KD, high-affinity sites and KD, low-affinity sites for 1 substance.

This assay addresses high-affinity binding sites and low-affinity sites for VEGF165 on the SK-MEL-28 cell line (human (endogenous in SK-MEL-28)). The assay can be described thus: radioligand binding; radio-receptor assay with [125I]-labeled VEGF165 on SK-MEL-28 cells; two classes of sites; data not shown.

For the substance “Recombinant Human VEGF165 (from UniProt P15692-4 1-191) (ligand)”, the KD, high-affinity sites stood at 0.13 nM and the KD, low-affinity sites is 4.1 nM.
